PMC9974095, “TP63 gain-of-function mutations cause premature ovarian insufficiency by inducing oocyte apoptosis” (The Journal of Clinical Investigation, 2023)

B1: TAp63α p.R647C (natural protein, human, UniProt Q9H3D4-1 1-680, looked up)
chain: MNFETSRCATLQYCPDPYIQRFVETPAHFSWKESYYRSTMSQSTQTNEFLSPEVFQHIWDFLEQPICSVQPIDLNFVDEPSEDGATNKIEISMDCIRMQDSDLSDPMWPQYTNLGLLNSMDQQIQNGSSSTSPYNTDHAQNSVTAPSPYAQPSSTFDALSPSPAIPSNTDYPGPHSFDVSFQQSSTAKSATWTYSTELKKLYCQIAKTCPIQIKVMTPPPQGAVIRAMPVYKKAEHVTEVVKRCPNHELSREFNEGQIAPPSHLIRVEGNSHAQYVEDPITGRQSVLVPYEPPQVGTEFTTVLYNFMCNSSCVGGMNRRPILIIVTLETRDGQVLGRRCFEARICACPGRDRKADEDSIRKQQVSDSTKNGDGTKRPFRQNTHGIQMTSIKKRRSPDDELLYLPVRGRETYEMLLKIKESLELMQYLPQHTIETYRQQQQQQHQHLLQKQTSIQSPSSYGNSSPPLNKMNSMNKLPSVSQLINPQQRNALTPTTIPDGMGANIPMMGTHMPMAGDMNGLSPTQALPPPLSMPSTSHCTPPPPYPTDCSIVSFLARLGCSSCLDYFTTQGLTTIYQIEHYSMDDLASLKIPEQFRHAIWKGILDHRQLHEFSSPSHLLRTPSSASTVSVGSSETRGERVIDAVRFTLCQTISFPPRDEWNDFNFDMDARRNKQQRIKEEGE
notes: Variant found in three patients with POI; source: SAOS-2, transfected, MG132-treated, in lysate

Legend:
[1] = molecular target: TAp63α p.Q568fs*3 (human) (UniProt Q9H3D4); assay: native gel or EMSA; BN-PAGE (NativePAGE 3%-12% Bis-Tris) of lysates of transfected SAOS-2 cells treated with 10 uM MG132 for 12 h; blot with anti-p63
TAp63αΔTID = assay: co-IP (anti-p63 IP, GFP Western blot, quantified); conditions: HEK293 cells cotransfected with TAp63αΔTID and GFP-TID plasmids; 3 independent experiments; parent: est. 6.4; read off a plot
[2] = molecular target: the molecule itself; assay: native gel or EMSA; BN-PAGE (NativePAGE 3%-12% Bis-Tris) of lysates of transfected SAOS-2 cells treated with 10 uM MG132 for 12 h; blot with anti-p63

| Molecule | response (TAp63αΔTID) [% Input] | other results |
| --- | --- | --- |
| TAp63α p.Q568fs*3 (from UniProt Q9H3D4-1 1-567) (domain or fragment) | – | stoichiometry N [1]: 4 |
| GFP-TID, wild type R647C | 3.5 | – |
| GFP-TID, wild type R655Q | 2.8 | – |
| GFP-TID, wild type R643Q | 2.4 | – |
| GFP-TID, wild type L646P | 0.58 | – |
| B1 | – | stoichiometry N [2]: 4 |
